According to patent publication US7504561B2, “GDC-1 genes conferring herbicide resistance” (Athenix Corporation, priority 2003, dated 2009):

Test: Standard pyruvate decarboxylase assay (coupled reaction with alcohol dehydrogenase, absorbance at 340 nm)
Format: biochemical
Settings: 100 ng of GDC-1 protein
Procedure: 100 ng of GDC-1 protein was tested for activity in a standard pyruvate decarboxylase assay (Gounaris et al. (1971) J. of Biol. Chem. 246:1302-1309). This assay is a coupled reaction, wherein the first step the pyruvate decarboxylase (PDC) converts pyruvate to acetaldehyde and CO2. The acetaldehyde produced in this reaction is a substrate for alcohol dehydrogenase, which converts acetaldehyde and β-NADH to ethanol and β-NAD. Thus, PDC activity is detected by virtue of utilization of β-NADH as decrease in absorbance at 340 nm in a spectrophotometer. GDC-1 as well as a control enzyme (pyruvate decarboxylase, Sigma) were tested in this assay.

B1: GDC-1: glyphosate resistance-conferring decarboxylase from fungal strain ATX6394, SEQ ID NO:19; purified as 6×His-tagged protein (protein)
chain: MASINIRVQNLEQPMDVAEYLFRRLHEIGIRSIHGLPGDYNPLALDYLPSCGLRWVGSVNELNAAYAADGYARVKQMGALITTFGVGELSAINGVAGAFSEHVPVVHIVGCPSTASQRNGMLLHHTLGNGDFNIFANMSAQISCEVAKLTNPAEIATQIDHALRVCFIRSRPVYIMLPTDMVQAKVEGARLKEPIDLSEPPNDPEKEAYVVDVVLKYLRAAKNPVILVDACAIRHRVLDEVHDLIEKTNLPVFVTPMGKGAVNEEHPTYGGVYAGDGSHPPQVKDMVESSDLILTIGALKSDFNTAGFSYRTSQLNTIDLHSDHCIVKYSTYPGVQMRGVLRQVIKQLDASEINAQPAPVVENEVAKNRDNSPVITQAFFWPRVGEFLKKNDIVITETGTANFGIWDTKFPSGVTALSQVLWGSIGWSVGACQGAVLAAADDNSDRRTILFVGDGSFQLTAQELSTMIRLKLKPIIFVICNDGFTIERFIHGMEAEYNDIANWDFKALVDVFGGSKTAKKFAVKTKDELDSLLTDPTFNAAECLQFVELYMPKEDAPRALIMTAEASARNNAKTE
modifications: 6xHis tag; Fungal isolate from soil sample
notes: purified as 6×His-tagged protein
For B1, the Pyruvate decarboxylase activity was “showed activity as a pyruvate decarboxylase”.
